Laboratory results from patent US20240384250A1, “FIBROBLAST GROWTH FACTOR 23 MODULATING COMPOUNDS” (THE UAB RESEARCH FOUNDATION, priority 2021, published 2024).
“Also recorded” adds a separate entry of the source.

T1: FGF23 binding to FGFR4 (Homo sapiens, UniProt P22455+Q9GZV9)
T1 construct: Fc-coupled FGFR ectodomains were immobilized on protein A/G beads; purchased R&D Systems 2604FG025/CF or 2629FG025/CF; 685FR050
T1 sequence (Q9GZV9 25-251): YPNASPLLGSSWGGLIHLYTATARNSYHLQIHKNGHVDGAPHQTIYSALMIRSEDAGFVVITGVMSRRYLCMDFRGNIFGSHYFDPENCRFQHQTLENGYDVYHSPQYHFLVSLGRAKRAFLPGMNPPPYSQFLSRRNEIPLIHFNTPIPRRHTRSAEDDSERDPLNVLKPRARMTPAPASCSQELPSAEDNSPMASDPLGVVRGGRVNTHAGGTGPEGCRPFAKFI
T1 sequence (P22455 22-369 limits assumed): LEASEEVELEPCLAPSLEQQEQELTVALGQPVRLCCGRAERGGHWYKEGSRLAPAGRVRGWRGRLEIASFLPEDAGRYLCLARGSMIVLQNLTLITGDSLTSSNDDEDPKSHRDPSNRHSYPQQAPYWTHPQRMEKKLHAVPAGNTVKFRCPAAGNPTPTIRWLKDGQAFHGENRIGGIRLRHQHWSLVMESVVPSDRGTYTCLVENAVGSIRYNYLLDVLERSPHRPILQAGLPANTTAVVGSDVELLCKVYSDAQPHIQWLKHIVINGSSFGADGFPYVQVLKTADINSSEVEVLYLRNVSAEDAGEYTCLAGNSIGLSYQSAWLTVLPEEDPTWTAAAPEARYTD

B1: FGF23: recombinant fibroblast growth factor 23 protein from R&D Systems (protein)
chain: YPDTSPLLGSNWGSLTHLYTATARTSYHLQIHRDGHVDGTPHQTIYSALMITSEDAGSVVITGAMTRRFLCMDLHGNIFGSLHFSPENCKFRQWTLENGYDVYLSQKHHYLVSLGRAKRIFQPGTNPPPFSQFLARRNEVPLLHFYTVRPRRHTRSAEDPPERDPLNVLKPRPRATPVPVSCSRELPSAEEGGPAASDPLGVLRRGRGDARGGAGGADRCRPFPRFV
B2: sKL: recombinant soluble α-klotho ectodomain, mouse aa 35-982 and human aa 34-981, FLAG- or Strep/His-tagged, purified from HEK293 cells (protein)
chain: EPGDGAQTWARFSRPPAPEAAGLFQGTFPDGFLWAVGSAAYQTEGGWQQHGKGASIWDTFTHHPLAPPGDSRNASLPLGAPSPLQPATGDVASDSYNNVFRDTEALRELGVTHYRFSISWARVLPNGSAGVPNREGLRYYRRLLERLRELGVQPVVTLYHWDLPQRLQDAYGGWANRALADHFRDYAELCFRHFGGQVKYWITIDNPYVVAWHGYATGRLAPGIRGSPRLGYLVAHNLLLAHAKVWHLYNTSFRPTQGGQVSIALSSHWINPRRMTDHSIKECQKSLDFVLGWFAKPVFIDGDYPESMKNNLSSILPDFTESEKKFIKGTADFFALCFGPTLSFQLLDPHMKFRQLESPNLRQLLSWIDLEFNHPQIFIVENGWFVSGTTKRDDAKYMYYLKKFIMETLKAIKLDGVDVIGYTAWSLMDGFEWHRGYSIRRGLFYVDFLSQDKMLLPKSSALFYQKLIEKNGFPPLPENQPLEGTFPCDFAWGVVDNYIQVDTTLSQFTDLNVYLWDVHHSKRLIKVDGVVTKKRKSYCVDFAAIQPQIALLQEMHVTHFRFSLDWALILPLGNQSQVNHTILQYYRCMASELVRVNITPVVALWQPMAPNQGLPRLLARQGAWENPYTALAFAEYARLCFQELGHHVKLWITMNEPYTRNMTYSAGHNLLKAHALAWHVYNEKFRHAQNGKISIALQADWIEPACPFSQKDKEVAERVLEFDIGWLAEPIFGSGDYPWVMRDWLNQRNNFLLPYFTEDEKKLIQGTFDFLALSHYTTILVDSEKEDPIKYNDYLEVQEMTDITWLNSPSQVAVVPWGLRKVLNWLKFKYGDLPMYIISNGIDDGLHAEDDQLRVYYMQNYINEALKAHILDGINLCGYFAYSFNDRTAPRFGLYRYAADQFEPKASMKHYRKIIDSNGFPGPETLERFCPEEFTVCTECSFFHTRKS
modifications: left off: small tags and cut ends
notes: recombinant soluble α-klotho ectodomain, mouse aa 35-982 and human aa 34-981, FLAG- or Strep/His-tagged, purified from HEK293 cells

Key:
[1] = target: T1, FGF23 binding to FGFR4; assay: Plate-based binding, FGF23 coated, then sKL, heparin or PBS, then Fc-FGFR; details: with sKL, with heparin 0.4 USP, or alone
Protocol: Proteins were coated on 96-well plates (MaxiSorp; 439454, Thermo Fisher Scientific), and proteins were added to wells in 100 μl of enzyme-linked immunosorbent assay (ELISA) coating buffer (E107, Bethyl Laboratories) with a lid placed overtop and incubated at 4° C. overnight. Plates were washed 5× with 350 μl of assay buffer (50 mM Tris [pH 7.4], 200 mM NaCl, 0.01% Tween 20) on a 50 TS microplate washer (BioTek). Plates were blocked for 1 hour in 200 μl of assay buffer with 0.5% BSA. Plates were washed as before, and proteins were incubated on plates in 100 μl of assay buffer with 0.5% BSA. Proteins or heparin was incubated in orders described in the respective figure legends. Assays using FLAG-tag-based detection were incubated with anti-FLAG coupled to HRP at 1:20,000, and assays using Fc detection were incubated with anti-human Fc coupled to HRP at 1:10,000. Plates were washed as above, and 100 μl of 3,3′,5,5′-tetramethylbenzidine (TMB) substrate (E102, Bethyl Laboratories) was added for 15 to 20 minutes until positive wells developed a dark blue color. Reactions were stopped with ELISA stop solution (E115, Bethyl Laboratories) and analyzed using the Synergy HI plate reader (BioTek) at 450 nm wavelength. […] As a control to remove background absorbance values, wells were coated with an equal amount of BSA to match the amount of protein coated in experimental wells and treated the same as experimental wells. To study the effects of sKL on the binding between paracrine FGFs and FGFRs, plates were run as above except coated with paracrine FGFs. Fc-FGFR1 was preincubated with sKL or vehicle for 60 minutes, and then the combination was added to wells and the assay was run as before.

[2] = tested on: neonatal rat ventricular myocytes; assay: Hypertrophic growth of isolated neonatal rat ventricular myocytes (cell area); format: cell-based
Protocol: Neonatal rat ventricular myocytes (NRVMs) were isolated using a kit according to the manufacturer's protocol (LK003300, Worthington Biochemical Corporation), as done previously.^13,16,17 Briefly, hearts from 1- to 3-day-old Sprague Dawley rats (Envigo) were harvested and minced in calcium- and magnesium-free Hanks balanced salt solution and the tissue was digested with 50 μg/ml of trypsin at 4° C. for 20 to 24 hours. Soybean trypsin inhibitor in Hanks balanced salt solution was added, and the tissue was further digested with collagenase (in Leibovitz L-15 medium) under slow rotation (0.14 g) at 37° C. for 45 minutes. Cells were broken up by triturating the suspension 20× with a standard 10-ml plastic serological pipette. Cells were then filtered through a cell strainer (70 μm, BD Falcon). Cells were incubated at room temperature for 20 minutes and spun at 100 g for 5 minutes. The cell pellet was resuspended in plating medium (DMEM Base [10013CV, Corning], 17% M199 [12350039, Gibco], 15% FBS [26140079, Gibco], I× Pen/Strep [15140122, Gibco]). For cell tracings, NRVMs were grown in 24-well plates on glass coverslips (CLS1760012, Chemglass). Slips were precoated with laminin (23017015, Invitrogen) at 10 μg/ml for 1 hour at 37° C. dissolved in PBS. Laminin was aspirated, and cells and medium were added. Cells were counted by a hemocytometer and plated at 4×10^5 cells per well. […] After 48 hours, maintenance medium was replaced, and after another 48 hours, cells were ready for treatment, giving a total of 72 hours of plating medium and 96 hours of maintenance medium before treatment. […]
The medium was aspirated, and cultured NRVMs were fixed in 2% paraformaldehyde (P-6148, Sigma-Aldrich) and 4% sucrose dissolved in PBS for 5 minutes followed by permeabilization with 1% Triton X-100 dissolved in PBS for 10 minutes. […] The cross-sectional area of myocytes was measured on the basis of α-actinin-positive staining using ImageJ software (v1.53, National Institutes of Health). […]

| Molecule | binding of coated FGF23 to Fc-FGFR4 [1] | cell area ([2]; FGF23 alone, 48 hours) | FGF23-induced hypertrophy (increase in cell area) ([2]; cotreatment with FGF23 25 ng/ml, 48 hours, sKL 100 ng/ml, anti-FGF23 1 μg/ml) | NRVM area, treatment by itself ([2]; without FGF23, 48 hours) |
| --- | --- | --- | --- | --- |
| B1 | low affinity; also recorded: weak affinity | induced hypertrophic growth; also recorded: increase in cell area; also recorded: stepwise elevation in the cell area | – | – |
| B2 | highest FGF23-sKL affinities; also recorded: increased; also recorded: the strongest | – | FGF23 did not induce hypertrophy; also recorded: blocked this effect | no effect |
